Test results taken from publication PMC9010301.

Target: Rad24-RFC clamp loader;9-1-1 clamp (Ddc1-Mec3-Rad17) (Saccharomyces cerevisiae;Saccharomyces …, UniProt P32641;P40348;P38629;P40339;P38251;Q08949;Q02574;P48581 …, |)
Experiment: cryo-EM structure; closed 9-1-1 state; 0.5 mM ATPgS, 5 mM Mg acetate; 4 ATPgS and 1 ADP bound; 3.2 A; 1.8 uM Rad24-RFC, 2.2 uM 9-1-1, 2.7 uM DNA, 0.5 mM ATPgS, 5 mM Mg acetate; 9-1-1 + DNA 10 min at 30 C, then with loader on ice water 30 min (double-tailed) or 3

B1: double-tailed DNA (3'- and 5'-recessed ends) (dsDNA)
DNA 1: GCAGACACTACGAGTACATA
DNA 2: TTTTTTTTTTTATGTACTCGTAGTGTCTGCTTTTTTTTTT
modifications: 5'-OH
binding result: binds
